The text below walks through data of patent US20240181067A1, “TARGETED BIFUNCTIONAL DEGRADERS AND METHODS USING SAME” (YALE UNIVERSITY, priority 2021, published 2024).

This experiment addresses streptavidin AF488 (Streptomyces avidinii, UniProt P22629). The experiment in a line: Degradation of a target protein using an LRP1 binding motif. In kind it is cell-based. The settings on record: FIG. 12. An excerpt: Some studies have been done on other bifunctional molecules comprising an LRP1 binding motif depicted in FIG. 2 and a biotin Target binding motif, wherein these bifunctional molecules also noncovalently bind streptavidin (FIG. 11).

streptavidin AF488, sequence (P22629 25-183): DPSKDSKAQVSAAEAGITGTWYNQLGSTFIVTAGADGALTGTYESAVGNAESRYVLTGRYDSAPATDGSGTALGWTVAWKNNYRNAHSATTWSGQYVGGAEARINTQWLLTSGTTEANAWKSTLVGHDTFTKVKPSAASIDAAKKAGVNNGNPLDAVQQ

Turning to “Ac.Ac.Biotin Angiopep-2: "the Ac.Ac.Biotin Angiopep-2 mediated degradation of streptavidin AF488"”, the “degradation of streptavidin AF488” value is listed as “mediated degradation of streptavidin AF488”.
